Source: article PMC5459902 (Scientific Reports, 2017)

Legend:
PnFPOX = target: T1, PnFPOX (Parastagonospora nodorum, UniProt Q0UIL6); assay: X-ray crystal structure, […] Å; format: binding; conditions: covalent; bond to Cys343
T1 construct: gene SNOG_08398; His-tagged, pET22b (NdeI/XhoI), E. coli BL21(DE3); HisTrap purified; 49 kDa on SDS-PAGE
T1 sequence (Q0UIL6 1-437): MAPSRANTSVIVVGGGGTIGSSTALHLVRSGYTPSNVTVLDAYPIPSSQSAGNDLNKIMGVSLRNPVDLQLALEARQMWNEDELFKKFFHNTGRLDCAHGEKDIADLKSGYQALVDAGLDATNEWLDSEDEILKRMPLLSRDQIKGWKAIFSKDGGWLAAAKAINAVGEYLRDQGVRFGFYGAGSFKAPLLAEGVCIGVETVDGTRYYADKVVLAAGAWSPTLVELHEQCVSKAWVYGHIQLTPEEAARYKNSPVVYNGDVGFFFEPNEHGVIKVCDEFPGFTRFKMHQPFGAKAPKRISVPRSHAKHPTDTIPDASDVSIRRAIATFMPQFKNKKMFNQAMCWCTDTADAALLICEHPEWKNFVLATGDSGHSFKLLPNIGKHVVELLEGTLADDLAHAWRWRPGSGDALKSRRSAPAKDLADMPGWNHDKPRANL

[1] = system: CC(C)[C@H](NC[C@@]1(O)OC[C@@H](O)[C@@H](O)[C@@H]1O)C(=O)O; assay: H2O2 formation, peroxidase-coupled 4-AA/TOOS spectrophotometric assay; format: biochemical, Parastagonospora nodorum; conditions: oxidase activity, O2 as electron acceptor, 10 mM potassium phosphate pH 7.0, 298 K, 25.0 °C
From the text: (§1) H2O2 formation, peroxidase-coupled 4-AA/TOOS spectrophotometric assay on PnFPOX

[2] = substrate: CC(C)[C@H](NC[C@@]1(O)OC[C@@H](O)[C@@H](O)[C@@H]1O)C(=O)O; assay: as above; format: biochemical, Parastagonospora nodorum; conditions: oxidase activity, O2 as electron acceptor, 10 mM potassium phosphate pH 7.0, 298 K, 25.0 °C; remark: listed apart in the source
From the text: as §1

Molecule: Cc1cc2nc3c(=O)[nH]c(=O)nc-3n(C[C@H](O)[C@H](O)[C@H](O)COP(=O)(O)OP(=O)(O)OC[C@H]3O[C@@H](n4cnc5c(N)ncnc54)[C@H](O)[C@@H]3O)c2cc1C [FAD]
- X-ray crystal structure, 1.83 Å (PnFPOX): A covalent bond is formed between FAD and Cys343 of PnFPOX

Molecule: PnFPOX (Parastagonospora nodorum SN15; D54A/N56A)
- Km [1]: 14 ± 1.2 µM
- Vmax [1]: 0.078 µmol/min/mg
- Vmax/Km [1]: 5730 µL/min/mg

Molecule: PnFPOX (Parastagonospora nodorum SN15; D54N/N56A)
- Km [1]: 46 ± 3.7 µM

B1: PnFPOX (Parastagonospora nodorum SN15) (protein)
chain: T1 sequence (Q0UIL6 1-437)
notes: His-tagged, pET22b (NdeI/XhoI), E. coli BL21(DE3); HisTrap purified; 49 kDa on SDS-PAGE
- Km [2]: 359 ± 6.2 µM
- Vmax [2]: 29.9 µmol/min/mg
- Vmax/Km [2]: 83300 µL/min/mg
